Experimental data as given in US20150376282A1.
Each block holds one molecule with its values, some of them ahead of it.

Key:
[1] = molecular target: 2F8-HG-L236V (human); test: non-covalent nano-ESI MS, 0.01-10 µM, self-association
[2] = molecular target: 2F8-HG-Y275A (human); test: as above
[3] = molecular target: 2F8-HG (human); test: non-covalent nano-ESI MS, 1 µM, self-association
[4] = molecular target: 2F8-HG (human); test: non-covalent nano-ESI MS, monomer/dimer equilibrium (CH3-CH3 dimerisation of half-molecules)
[5] = molecular target: 2F8-HG-F405A (human); test: non-covalent nano-ESI MS, 0.01-10 µM, self-association

percentage molecules present as monomers [3]: 15%
Kd [4]: 50 nM
Molecule: 2F8-HG (antibody)

percent monomeric at low concentrations [5]: 100%
B1: 2F8-HG-F405A (antibody, part only; not given: 2F8 VH and light chain, part only)
heavy, part: ASTKGPSVFPLAPCSRSTSESTAALGCLVKDYFPEPVTVSWNSGALTSGVHTFPAVLQSSGLYSLSSVVTVPSSSLGTKTYTCNVDHKPSNTKVDKRVAPEFLGGPSVFLFPPKPKDTLMISRTPEVTCVVVDVSQEDPEVQFNWYVDGVEVHNAKTKPREEQFNSTYRVVSVLTVLHQDWLNGKEYKCKVSNKGLPSSIEKTISKAKGQPREPQVYTLPPSQEEMTKNQVSLTCLVKGFYPSDIAVEWESNGQPENNYKTTPPVLDSDGSFALYSRLTVDKSRWQEGNVFSCSVMHEALHNHYTQKSLSLSLGK

Further lines, the molecule ahead of its results:

Molecule: 2F8-HG-L236V (antibody)
percent monomeric at low concentrations [1]: 100%

Molecule: 2F8-HG-Y275A (antibody)
percent monomeric at low concentrations [2]: 100%
